Among the data in the supplement of paper PMC10567573 are protein stability index values, retold here.

The nature of this data set: protein stability index of a GFP-peptide fusion (GPS, HEK-293T) (PSI 1-6); higher = more stable. The settings on record: c terminus: a fixed tail appended.

± gives the standard deviation.
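Further: 24-mer peptide tiles fused after GFP, lentivirally expressed, FACS-sorted into six equal bins by GFP/DsRed ratio, decoded by Illumina sequencing, PSI is the read-weighted mean bin number.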

RPKDTVMCYRVRWEEAAPGRAVEH [MYORG] displayed a protein stability index (treatment: DMSO) of 2.85 ± 0.39 and a protein stability index (treatment: MLN4924 1 uM, 8 h) of 2.91 ± 0.35.
Consider RPSRSGAQQLEEEGPMEEEEAQPM [EID1], for which the protein stability index is, setting by setting: (treatment: DMSO) 5.66 ± 0.25; (treatment: MLN4924 1 uM, 8 h) 5.53 ± 0.2.
The corresponding values for RRNLEEDDYLHKDTGETSMLKRPV [STEAP1] are 4.69 ± 0.13 and 4.76 ± 0.19.
Consider RRSFLNAHHRSGAQVFPESPESES [GNAS], for which the protein stability index worked out at 5.02 ± 0.25 (treatment: DMSO) and 5.03 ± 0.11 (treatment: MLN4924 1 uM, 8 h).
Consider RRSVRKNHMYSCRFSRQCVVDKDK [HNF4A], for which the protein stability index runs as follows: (treatment: DMSO) 3.02 ± 0.24; (treatment: MLN4924 1 uM, 8 h) 3.2 ± 0.24.
The like results for RRTRGPVERAAAAAAAAAGGDAGH [C6orf223] were, in that order, 4.91 ± 0.31 and 5.07 ± 0.17.
The like results for RSFVEKHRWPSNMYLKQLAEYRKY [RHOBTB3] were, in that order, 2.38 ± 0.24 and 2.62 ± 0.74.
The corresponding values for RSLFSSVPSKPPMSLEPQNGTYAG [ANKRD40] are 3.51 ± 0.19 and 4.29 ± 0.41.
As to RSLGPRAPSLRRHVLIHNTLQQLQ [SERTAD3], the protein stability index stood at 2.64 ± 0.25 (treatment: DMSO) and 3.05 ± 0.19 (treatment: MLN4924 1 uM, 8 h).
The corresponding values for RSLLRLRATRAGAAEEPGVRGLLA [C2CD2L] are 3.17 ± 0.43 and 3.44 ± 0.18.
Turning to RSQMQGPRTRARLGANEVLLVVGG [KLHL12], the protein stability index runs as follows: (treatment: DMSO) 2.39 ± 0.39; (treatment: MLN4924 1 uM, 8 h) 2.62 ± 0.37.
The corresponding values for RSSSRINIPERASGPEGNLNQIVT [FAM104B] are 4.28 ± 0.27 and 4.36 ± 0.2.
The corresponding values for RTGLEKAAAGAVGLERRDWSPSPP [SPDEF] are 4.55 ± 0.2 and 4.49 ± 0.25.
The corresponding values for RTLRNFINDEMQAKGIPQRAPPKR [PCMTD1] are 4.06 ± 0.16 and 3.98 ± 0.36.
RTSCSSRPCVPPSCHGYTLPGACN [KRT33B]: the protein stability index reads like this: (treatment: DMSO) 2.67 ± 0.3; (treatment: MLN4924 1 uM, 8 h) 2.56 ± 0.17.
The corresponding values for RTVKLIRYVSNWDFFIVGCEVIFC [PKD2L1] are 2.79 ± 0.56 and 2.58 ± 0.47.
The like results for RVYPKCTWLTTPKSTWPRYSKPGL [TCF25] were, in that order, 2.59 ± 0.23 and 2.46 ± 0.12.
The corresponding values for RYAEHVAATQALPQDSGTAAWKGR [C22orf31] are 4.1 ± 0.17 and 4.14 ± 0.35.
In the case of RYFIADLPHLQDSFVDKLLDLMPR [INTS4], the protein stability index was 2.16 ± 0.29 (treatment: DMSO) and 2.27 ± 0.29 (treatment: MLN4924 1 uM, 8 h).
For RYSSDTTPLLNGSSQDRMFETMAI [GOSR1], the protein stability index is, setting by setting: (treatment: DMSO) 3.29 ± 0.77; (treatment: MLN4924 1 uM, 8 h) 3.27 ± 0.24.
The corresponding values for SALPTGSPKRGTAPGDLSATEPAT [FBF1] are 5.32 ± 0.36 and 5.32 ± 0.086.
The like results for SDPCGQLRPTLLLTSLHHFMHSRN [PNLIPRP1] were, in that order, 2.3 ± 0.35 and 2.6 ± 0.24.
On to SDVDQLYLIIRTLGKLIPRHQSIF [CDKL4], for which the protein stability index is, setting by setting: (treatment: DMSO) 3 ± 1.2; (treatment: MLN4924 1 uM, 8 h) 2.67 ± 0.77.
Regarding SDVVEYAKEKLESFIKNSDSFDKF [PCMTD1], the protein stability index reads like this: (treatment: DMSO) 3.7 ± 0.17; (treatment: MLN4924 1 uM, 8 h) 4.16 ± 0.38.
The like results for SDWFNFHGHMCIAFELLGKNTFEF [CLK3] were, in that order, 3 ± 0.3 and 2.94 ± 0.31.
Take SEDEEEYESGYAFLPDLLIFQMVI [SMG5]: the protein stability index reads like this: (treatment: DMSO) 2.76 ± 0.62; (treatment: MLN4924 1 uM, 8 h) 2.59 ± 0.53.
The corresponding values for SERCQRQLQSLCRGLGLGGRRLKS [FANCE] are 3.22 ± 0.36 and 3.49 ± 0.47.
The like results for SFHPLQYIGFYGKETTNTCILKCN [PDS5B] were, in that order, 1.99 ± 0.44 and 2.27 ± 0.35.
The corresponding values for SFPRNNISYLVLSMISMGLFSIAP [JAGN1] are 3.32 ± 0.2 and 3.42 ± 0.42.
The sequence SGAVGARRFLLCLYLVGFLDLFGV [MFSD9] registered a protein stability index (treatment: DMSO) of 2.99 ± 0.54 and a protein stability index (treatment: MLN4924 1 uM, 8 h) of 2.84 ± 0.37.
The corresponding values for SGRFAGREWYYGNVTRHQAECALN [NCK2] are 2.31 ± 0.16 and 2.47 ± 0.22.
The corresponding values for SGSGNRLDGKKKGVEPSPSPIKPG [UFD1] are 4.61 ± 0.29 and 4.72 ± 0.079.
For SHFVFVIEVKTKGGSKYLIYRRYR [NCF4], the protein stability index by setting is: (treatment: DMSO) 2.81 ± 0.56; (treatment: MLN4924 1 uM, 8 h) 2.48 ± 0.33.
SHHLAVYNSPQFKKTMSTFHNLVS [FBXO39] came in with a protein stability index (treatment: DMSO) of 2.25 ± 0.28 and a protein stability index (treatment: MLN4924 1 uM, 8 h) of 2.31 ± 0.1.
Regarding SHKERFDPSGKGKGKAGRVDLVDE [TPPP], the protein stability index by setting is: (treatment: DMSO) 5.04 ± 0.46; (treatment: MLN4924 1 uM, 8 h) 5.24 ± 0.2.
The corresponding values for SHLLVVEPEKLYAMPDPAGPDGHL [ESRRA] are 3.68 ± 0.17 and 3.82 ± 0.27.
